Laboratory results published in US7521540B2, “CYR61 compositions and methods” (Munin Corporation, priority 1996, dated 2009).

Tests used:
HUVE cells = test: Cell spreading assay; type: cell-based, human; conditions: dishes coated with 10 μg/ml, 2 hours
Procedure: In another embodiment of the invention, the effect of murine Cyr61 on cell morphogenesis was assessed by a cell spreading assay. Polystyrene Petri dishes were coated with 2 ml of a 10 μg/ml solution of Cyr61 or fibronectin in PBS with 0.1% BSA and treated as described above. A third plate was treated with BSA and served as a control. Each dish received 7×10^6 cells and was incubated for 2 hours. Cell spreading was analyzed by microscopy at 100-fold magnification.

[1] = system: Human Microvascular Endothelial Cells; test: In vitro migration assay for angiogenesis inhibitors; type: cell-based; conditions: bFGF 10 ng/ml; Cyr61; IGF-II
Procedure: As in the preceding Example, human microvascular endothelial cells (Clonetics) were used. In one series of assays, several carbohydrates and carbohydrate derivatives were analyzed. These compounds included 10 mM mannose, 10 mM mannose-6-phosphate, and 10 mM galactose. […] Cyr61 plus galactose induced the migration of approximately 74 cells per set of three high-powered fields. […] The angiogenic activity of basic FGF (10 ng/ml) was also tested, as described above, with and without mannose-6-phosphate. In the presence of 10 mM mannose-6-phosphate, bFGF induced 51 cells per set of three high-powered fields to migrate; in its absence, bFGF induced the migration of approximately 52 cells. […] The effect of mannose-6-phosphate on IGF II activity was anticipated because mannose-6-phosphate is known to compete with IGF II for their common receptor (the IGF II receptor). […] Moreover, because there is an essentially perfect correlation between the in vitro migration assay and the in vivo angiogenesis assay, described below, mannose-6-phosphate has been identified as an inhibitor of angiogenesis based on the results of the assay disclosed herein. Accordingly, the invention contemplates a method of inhibiting angiogenesis comprising the step of administering an inhibitor the angiogenic activity of Cyr61 such as mannose-6-phosphate. […]

Focal Adhesion Kinase = test: Focal adhesion induction; type: cell-based
From the text: In addition, Cyr61 induces focal adhesion, i.e., cell surface foci for cytoskeletal attachments. Focal adhesion is effected by cell surface protein complexes or clusters. These protein clusters are complex, including a variety of receptors from the integrin family, and a variety of protein kinases. The induction of focal adhesion by Cyr61 is reflected in the capacity of Cyr61 to induce particular members of these cell surface protein clusters. […] Moreover, indirect immunofluorescence studies have shown that Cyr61 is bound to a receptor (see above) in focal adhesive plaques. The plaques, in turn, are characteristic of focal adhesion protein complexes. Focal Adhesion Kinase, Paxillin, and αVβ3 Integrin are co-localized to the focal adhesion plaques produced by focal adhesion complex formation induced by Cyr61. These focal adhesion protein complexes bind Cyr61 at the cell surface; the complexes also attach internally to the cytoskeleton. Therefore, murine Cyr61, and human Cyr61 (see below), are, in part, adhesion molecules, a characteristic distinguishing Cyr61 from conventional growth factors. […] Subsequently, bound Cyr61 is detected, e.g., by anti-Cyr61 antibody that is labeled using techniques known in the art, such as radiolabelling, fluorescent labeling, or the use of enzymes catalyzing calorimetric reactions. […]

[2] = system: Bovine aortic smooth muscle cells (BASM cells); test: Smooth muscle cell adhesion assay; type: cell-based
Procedure: Cell adhesion assays were also performed on smooth muscle cells. Bovine aortic smooth muscle cells (BASM cells) were subjected to the cell adhesion assay described above in the context of assaying fibroblasts. […] To identify particular integrin, receptors mediating the Cyr61 induction of BASM cell adhesion, antibody studies were conducted using anti-integrin antibodies recognizing specific integrins. […] Thus, integrin α6β1 mediates Cyr61-induced adhesion of smooth muscle cells. It is expected that Cyr61 polypeptides that include the heparan binding domain IV will induce adhesion of any mammalian smooth muscle cell.

B1: Cyr61: Cysteine-rich ECM signaling protein; murine sequence SEQ ID NO:2, recombinant from Baculovirus-infected Sf9 cells (protein, listed as Mus musculus)
chain: MSSSTFRTLAVAVTLLHLTRLALSTCPAACHCPLEAPKCAPGVGLVRDGCGCCKVCAKQLNEDCSKTQPCDHTKGLECNFGASSTALKGICRAQSEGRPCEYNSRIYQNGESFQPNCKHQCTCIDGAVGCIPLCPQELSLPNLGCPNPRLVKVSGQCCEEWVCDEDSIKDSLDDQDDLLGLDASEVELTRNNELIAIGKGSSLKRLPVFGTEPRVLFNPLHAHGQKCIVQTTSWSQCSKSCGTGISTRVTNDNPECRLVKETRICEVRPCGQPVYSSLKKGKKCSKTKKSPEPVRFTYAGCSSVKKYRPKYCGSCVDGRCCTPLQTRTVKMRFRCEDGEMFSKNVMMIQSCKCNYNCPHPNEASFRLYSLFNDIHKFRD
HUVE cells
  HUVE cell spreading: induces HUVE cell spreading to approximately the same extent as fibronectin
[1]
  migrating cells, chemoattractant without mannose-6-phosphate: approximately 48 cells
Focal Adhesion Kinase
  phosphorylation of focal adhesion proteins: induces the phosphorylation of Focal Adhesion Kinase
[2]
  adhesion of BASM cells: induced adhesion of BASM cells
